Reference: PMC8882007, “Syndapin-2 mediated transcytosis of amyloid-β across the blood–brain barrier” (Brain Communications, 2022)

Key:
syndapin-2 = assay: Proximity ligation assay Aβ/syndapin-2 in BECs treated with Aβ assemblies; format: cell-based, mouse; details: Aβ assemblies at 100 nM for 15 min (Fig. 6C1)
Description: Polarized bEnd3 were washed twice with PBS, fixed in 4% (w/v) PFA in PBS for 15 min and permeabilized with 0.1% (w/v) Triton X-100 in PBS for 10 min. PLA was carried out by using Duolink probes and detection reagents according to the supplier’s instructions. Briefly, monolayers were incubated with Duolink blocking solution for 1 h at 37°C and then incubated with the two antibodies targeting each protein of interest overnight at 4°C. Subsequently, cells were incubated with Duolink PLA probes (anti-rabbit and anti-mouse) for 1 h at 37°C, washed and incubated with Duolink ligase and polymerase enzymes for 30 and 100 min, respectively. As a negative control, PLA protocol was followed with the exception of the addition of the primary antibodies to determine the specificity of the PLA probes. […] Images were acquired using a Leica TCS SP8 confocal microscope, via sequential scan to reduce fluorophore bleed-through, with a 63× oil immersion objective. z-stacks (10–20 stacks per sample) were collected (20 optical sections) and fluorescence intensity of the PLA signal was quantified using ImageJ. […]
(§1) Cell metabolic activity of BECs was assessed by using the RealTime-Glo™ MT Cell Viability Assay. […] To evaluate the effect of Aβ assemblies in the expression of LRP1, cells were treated for 2 h with Aβ at 10 µM and then, cells were collected and analysed by Western blotting, as described above.

LRP1 = target: T1, LRP1 (Mus musculus, UniProt Q91ZX7); assay: LRP1 expression in BECs treated with Aβ assemblies (Western blot); format: cell-based; details: 100 nM for 2 h, normalised to GAPDH and untreated cells, n = 3
T1 construct: endogenous in cells; host or cells: bEnd3 (ATCC CRL-2299)
Description: Polarized bEnd3 were washed twice with PBS and RIPA buffer containing protease inhibitors (1:50) was added directly to the transwell membranes and left on ice for 1 h. Cells were collected, centrifuged and the supernatant was collected for Western blot analysis. WT, KO and APP-PS1 mice were anaesthetized, decapitated and the brains were carefully collected from the skull. Brains were homogenized in a 4-fold excess volume of ice-cold buffer solution: 10 mM HEPES, 141 mM NaCl, 4 mM KCl, 2.8 mM CaCl2, 1 mM MgSO4, 1 mM NaH2PO4 and 10 mM glucose (pH 7.4) in a glass homogenizer (10–15 strokes). Microvessels and capillary-depleted fractions were prepared from WT, KO and APP-PS1 mice brains, as previously described.[28] Homogenate was suspended in an equal volume of 26% (w/v) dextran (64–76 kDa), mixed and centrifuged at 15 800 g for 10 min at 4°C. Pellet containing the brain microvessels was carefully separated from the supernatant containing capillary-depleted brain (parenchyma). Both fractions, microvessels and parenchyma, were washed twice in ice-cold buffered solution by centrifugation at 15 800 g for 10 min. Brain microvessels and parenchyma fractions were resuspended in RIPA lysis buffer containing protease inhibitors, centrifuged for 20 min, and the supernatant used for Western blot analysis. Protein levels in the lysates were determined using a BCA Protein Assay Kit. Lysates were mixed with Laemmli sample buffer, and proteins (25 µg) were separated on 10% SDS polyacrylamide gels and transferred to polyvinylidene difluoride (PVDF) membranes. All membranes were blocked with 5% (w/v) non-fat milk in Tris-buffered saline (TBS) containing 0.1% (w/v) Tween-20 (TBS-T) for 1 h and then incubated at 4°C with the primary antibody overnight. After washing with TBS-T three times for 5 min, membranes were incubated with the corresponding secondary antibody for 1 h at room temperature, washed with TBS-T and imaged using an Odyssey CLx (LI-COR Biosciences). […]
Cell metabolic activity of BECs was assessed by using the RealTime-Glo™ MT Cell Viability Assay. […]

LRP1/Rab5 = target: T2, LRP1/Rab5 (Mus musculus, UniProt Q91ZX7); assay: Proximity ligation assay LRP1/Rab5 in BECs treated with Aβ assemblies; format: cell-based; details: Aβ assemblies at 100 nM for 15 min (Fig. 6B2)
T2 construct: endogenous in cells; host or cells: bEnd3 (ATCC CRL-2299)
T2 sequence (Q91ZX7 20-3944 limits assumed): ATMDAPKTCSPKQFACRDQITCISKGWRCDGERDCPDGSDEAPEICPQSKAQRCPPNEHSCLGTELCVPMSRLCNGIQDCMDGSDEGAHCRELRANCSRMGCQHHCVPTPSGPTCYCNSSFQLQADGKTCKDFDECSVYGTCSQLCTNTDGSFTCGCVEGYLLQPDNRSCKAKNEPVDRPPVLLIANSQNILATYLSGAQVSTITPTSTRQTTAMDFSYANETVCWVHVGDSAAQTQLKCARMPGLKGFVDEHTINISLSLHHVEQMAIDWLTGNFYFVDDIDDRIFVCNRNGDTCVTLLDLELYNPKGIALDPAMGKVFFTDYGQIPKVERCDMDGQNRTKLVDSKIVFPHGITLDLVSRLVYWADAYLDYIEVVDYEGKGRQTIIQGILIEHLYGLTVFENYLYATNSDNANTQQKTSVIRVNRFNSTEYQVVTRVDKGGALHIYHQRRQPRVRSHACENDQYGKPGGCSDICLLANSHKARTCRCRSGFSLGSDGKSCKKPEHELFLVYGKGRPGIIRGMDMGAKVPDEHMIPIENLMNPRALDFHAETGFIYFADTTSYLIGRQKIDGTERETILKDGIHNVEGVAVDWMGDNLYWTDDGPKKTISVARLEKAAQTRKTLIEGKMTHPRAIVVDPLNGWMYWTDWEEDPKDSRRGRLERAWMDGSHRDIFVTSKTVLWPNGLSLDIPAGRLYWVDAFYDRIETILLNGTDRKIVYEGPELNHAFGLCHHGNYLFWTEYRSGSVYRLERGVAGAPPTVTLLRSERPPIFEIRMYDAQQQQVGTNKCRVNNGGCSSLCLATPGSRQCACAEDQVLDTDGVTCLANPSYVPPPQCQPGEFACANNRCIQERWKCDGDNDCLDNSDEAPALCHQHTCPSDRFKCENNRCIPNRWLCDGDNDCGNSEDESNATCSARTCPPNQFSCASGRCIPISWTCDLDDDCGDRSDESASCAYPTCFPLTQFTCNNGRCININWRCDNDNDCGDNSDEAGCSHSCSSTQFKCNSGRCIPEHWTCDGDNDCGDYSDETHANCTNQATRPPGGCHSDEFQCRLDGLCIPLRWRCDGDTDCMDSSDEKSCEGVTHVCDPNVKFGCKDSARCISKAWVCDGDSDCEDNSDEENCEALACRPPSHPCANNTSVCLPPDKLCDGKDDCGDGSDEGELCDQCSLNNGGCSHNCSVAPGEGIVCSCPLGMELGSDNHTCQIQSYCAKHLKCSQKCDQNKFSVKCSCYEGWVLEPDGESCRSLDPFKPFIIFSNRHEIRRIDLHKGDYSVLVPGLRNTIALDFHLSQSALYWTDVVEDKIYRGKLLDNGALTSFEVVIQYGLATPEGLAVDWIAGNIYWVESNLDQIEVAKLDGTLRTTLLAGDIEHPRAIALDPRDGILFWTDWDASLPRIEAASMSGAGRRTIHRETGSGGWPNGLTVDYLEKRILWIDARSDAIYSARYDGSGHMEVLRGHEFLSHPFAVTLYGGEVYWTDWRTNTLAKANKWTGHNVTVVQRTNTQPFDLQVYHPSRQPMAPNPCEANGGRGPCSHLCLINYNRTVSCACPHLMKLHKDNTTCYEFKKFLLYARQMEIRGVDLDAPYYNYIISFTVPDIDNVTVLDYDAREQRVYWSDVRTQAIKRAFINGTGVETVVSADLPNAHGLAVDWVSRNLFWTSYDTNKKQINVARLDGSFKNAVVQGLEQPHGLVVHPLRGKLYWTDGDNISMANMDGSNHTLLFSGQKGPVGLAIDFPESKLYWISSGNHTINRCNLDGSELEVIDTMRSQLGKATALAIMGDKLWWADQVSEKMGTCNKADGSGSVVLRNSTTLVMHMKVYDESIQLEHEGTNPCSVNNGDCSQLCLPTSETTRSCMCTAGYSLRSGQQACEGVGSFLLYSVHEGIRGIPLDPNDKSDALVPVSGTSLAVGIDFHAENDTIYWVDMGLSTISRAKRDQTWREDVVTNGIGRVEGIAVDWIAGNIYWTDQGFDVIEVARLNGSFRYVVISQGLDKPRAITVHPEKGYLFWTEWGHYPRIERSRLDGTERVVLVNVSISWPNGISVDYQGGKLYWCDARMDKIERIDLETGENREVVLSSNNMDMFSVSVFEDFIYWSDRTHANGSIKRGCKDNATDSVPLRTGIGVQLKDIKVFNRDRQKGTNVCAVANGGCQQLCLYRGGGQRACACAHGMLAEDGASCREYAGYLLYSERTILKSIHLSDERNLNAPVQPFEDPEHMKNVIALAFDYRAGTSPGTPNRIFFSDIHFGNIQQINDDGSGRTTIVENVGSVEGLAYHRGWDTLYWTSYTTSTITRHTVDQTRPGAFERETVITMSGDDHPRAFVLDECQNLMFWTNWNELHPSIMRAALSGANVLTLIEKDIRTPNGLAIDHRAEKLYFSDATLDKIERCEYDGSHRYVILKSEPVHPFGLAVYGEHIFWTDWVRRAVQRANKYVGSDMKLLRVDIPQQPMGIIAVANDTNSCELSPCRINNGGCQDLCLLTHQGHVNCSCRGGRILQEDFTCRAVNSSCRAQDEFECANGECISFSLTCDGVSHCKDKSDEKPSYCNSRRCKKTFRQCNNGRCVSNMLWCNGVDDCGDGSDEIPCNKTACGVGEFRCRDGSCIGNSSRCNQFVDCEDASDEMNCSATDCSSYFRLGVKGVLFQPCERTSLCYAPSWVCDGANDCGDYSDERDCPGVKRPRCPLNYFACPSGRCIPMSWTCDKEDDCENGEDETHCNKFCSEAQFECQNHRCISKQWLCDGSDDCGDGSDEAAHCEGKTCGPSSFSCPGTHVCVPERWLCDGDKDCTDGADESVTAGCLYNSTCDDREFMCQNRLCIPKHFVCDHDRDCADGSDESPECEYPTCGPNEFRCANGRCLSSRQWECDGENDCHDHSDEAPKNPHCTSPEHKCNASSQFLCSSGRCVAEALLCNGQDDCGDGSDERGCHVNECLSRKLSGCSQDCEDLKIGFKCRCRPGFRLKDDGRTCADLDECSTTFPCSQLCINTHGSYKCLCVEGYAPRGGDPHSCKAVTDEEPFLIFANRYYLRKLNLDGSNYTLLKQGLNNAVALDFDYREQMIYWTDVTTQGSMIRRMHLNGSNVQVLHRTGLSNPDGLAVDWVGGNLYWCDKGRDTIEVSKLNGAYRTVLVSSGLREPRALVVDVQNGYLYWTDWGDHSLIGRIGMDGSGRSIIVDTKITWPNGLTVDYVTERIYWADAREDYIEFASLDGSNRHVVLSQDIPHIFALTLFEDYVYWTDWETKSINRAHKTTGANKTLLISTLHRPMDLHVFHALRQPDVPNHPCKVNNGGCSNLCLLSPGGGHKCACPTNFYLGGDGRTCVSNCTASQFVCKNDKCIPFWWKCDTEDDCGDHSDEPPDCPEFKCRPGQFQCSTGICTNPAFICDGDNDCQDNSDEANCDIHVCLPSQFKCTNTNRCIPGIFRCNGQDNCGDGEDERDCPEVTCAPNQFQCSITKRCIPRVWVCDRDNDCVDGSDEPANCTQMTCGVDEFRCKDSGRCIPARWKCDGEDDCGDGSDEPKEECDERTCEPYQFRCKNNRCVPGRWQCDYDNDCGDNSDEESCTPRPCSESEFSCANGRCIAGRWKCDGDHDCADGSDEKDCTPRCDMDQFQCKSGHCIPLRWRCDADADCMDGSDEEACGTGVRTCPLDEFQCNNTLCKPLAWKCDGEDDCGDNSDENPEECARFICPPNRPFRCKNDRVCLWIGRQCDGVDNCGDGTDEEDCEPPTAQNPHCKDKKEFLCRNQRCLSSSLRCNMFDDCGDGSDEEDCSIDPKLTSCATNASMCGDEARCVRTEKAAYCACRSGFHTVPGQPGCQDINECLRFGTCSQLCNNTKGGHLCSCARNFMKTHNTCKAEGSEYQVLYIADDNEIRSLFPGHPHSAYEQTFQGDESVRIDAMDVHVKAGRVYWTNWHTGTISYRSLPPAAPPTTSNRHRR
T2 sequence (Q91ZX7 3945-4545 limits assumed): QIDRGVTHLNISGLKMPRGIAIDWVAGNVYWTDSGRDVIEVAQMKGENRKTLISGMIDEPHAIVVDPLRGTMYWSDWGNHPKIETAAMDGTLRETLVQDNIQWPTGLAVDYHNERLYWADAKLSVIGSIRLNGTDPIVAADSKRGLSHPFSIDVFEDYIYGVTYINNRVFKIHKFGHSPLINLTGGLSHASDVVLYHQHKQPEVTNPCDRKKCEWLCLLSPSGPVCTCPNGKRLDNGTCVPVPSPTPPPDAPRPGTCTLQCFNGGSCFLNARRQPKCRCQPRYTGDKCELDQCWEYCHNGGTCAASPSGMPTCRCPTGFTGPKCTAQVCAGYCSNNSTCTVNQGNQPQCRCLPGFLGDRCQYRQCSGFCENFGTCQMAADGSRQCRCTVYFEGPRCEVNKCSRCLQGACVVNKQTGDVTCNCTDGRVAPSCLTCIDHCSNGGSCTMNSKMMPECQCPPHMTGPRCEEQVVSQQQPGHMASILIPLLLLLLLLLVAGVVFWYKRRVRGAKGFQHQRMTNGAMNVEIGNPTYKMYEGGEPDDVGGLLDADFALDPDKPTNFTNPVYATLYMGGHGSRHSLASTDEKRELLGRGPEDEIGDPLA
Description: Polarized bEnd3 were washed twice with PBS, fixed in 4% (w/v) PFA in PBS for 15 min and permeabilized with 0.1% (w/v) Triton X-100 in PBS for 10 min. PLA was carried out by using Duolink probes and detection reagents according to the supplier’s instructions. Briefly, monolayers were incubated with Duolink blocking solution for 1 h at 37°C and then incubated with the two antibodies targeting each protein of interest overnight at 4°C. Subsequently, cells were incubated with Duolink PLA probes (anti-rabbit and anti-mouse) for 1 h at 37°C, washed and incubated with Duolink ligase and polymerase enzymes for 30 and 100 min, respectively. As a negative control, PLA protocol was followed with the exception of the addition of the primary antibodies to determine the specificity of the PLA probes. Nuclei were counterstained by incubation with DAPI for 10 min. Membranes were mounted in glass coverslips using Vectashield Mounting Media. Images were acquired using a Leica TCS SP8 confocal microscope, via sequential scan to reduce fluorophore bleed-through, with a 63× oil immersion objective. z-stacks (10–20 stacks per sample) were collected (20 optical sections) and fluorescence intensity of the PLA signal was quantified using ImageJ. The abundance of PLA signal was normalized by the number of nuclei in each z-stack image. List of antibodies in Supplementary material.
as §1, with “Assay. Cells were seeded in 96-well plates at a density of 10 000 cells per well and incubated with Aβ assemblies at concentrations ranging 0.001–1 µM for 1 and 24 h. RealTime-Glo™ MT Assay was carried out according to the supplier’s instructions.” for “Assay.”

LRP1/syndapin-2 = target: T3, LRP1/syndapin-2 (Mus musculus, UniProt Q91ZX7); assay: Proximity ligation assay LRP1/syndapin-2 in BECs treated with Aβ; format: cell-based; details: Aβ assemblies at 100 nM for 15 min (Fig. 6B1)
T3 construct: endogenous in cells; host or cells: bEnd3 (ATCC CRL-2299), polarized
T3 sequence (Q91ZX7 20-3944 limits assumed): as the sequence (Q91ZX7 20-3944 limits assumed) above
T3 sequence (Q91ZX7 3945-4545 partner limits assumed): as the sequence (Q91ZX7 3945-4545 limits assumed) above

[1] = Thioflavin T (ThT) fluorescence assay of Aβ assemblies; format: physicochemical; details: Aβ preparation 10 µM in PBS with ThT 50 µM, 37°C, 450/485 nm; n = 3
Description: Aβ assemblies were prepared according to previously described protocols.[48],[49] Briefly, Aβ (1–40) peptide was dissolved in hexafluoro-2-propanol at 1 mM, vortexed and bath sonicated to obtain a homogenous solution, and aliquoted to microcentrifuge tubes. HIPF was removed by overnight evaporation and, once all solvent was removed, Aβ (1–40) films were stored at −80°C until further processed. Peptide films were then resuspended in dimethyl sulfoxide (DMSO) to 5 mM, bath sonicated for 10 min and vortexed for 30 s. […] Immediately before use, the oligomeric solutions were centrifuged at 14 000 g for 10 min at 4°C (to remove any fibrils that might be present), and the supernatant was diluted to the final experimental concentration. […] Monomeric Aβ was obtained by dissolving the peptide directly in DMSO at 1 mM. […] Aβ assemblies were characterized by measuring ThT fluorescence and transmission electron microscopy (TEM). […] Briefly, each Aβ preparation (20 µl, 10 µM) was incubated with ThT solution (80 µl, 50 µM) at 37°C and then the fluorescence of ThT was measured at 450/485 nm in a 96-well plate using a Spark Multimode microplate reader (Tecan). […] Images were recorded using a direct detection camera K2 IS from Gatan working in counted mode to allow for the sensitive Aβ structures to be imaged at low electron doses without beam damage. […]

[2] = Transmission electron microscopy of Aβ assemblies; format: physicochemical; details: negative staining, ∼0.5 mg ml^−1 dispersion
Description: Peptide films were then resuspended in dimethyl sulfoxide (DMSO) to 5 mM, bath sonicated for 10 min and vortexed for 30 s. […] Immediately before use, the oligomeric solutions were centrifuged at 14 000 g for 10 min at 4°C (to remove any fibrils that might be present), and the supernatant was diluted to the final experimental concentration. […] TEM imaging was performed using a JOEL JEM-2200FS microscope equipped with a field emission gun at 200 kV, and an in-column Omega filter. TEM microscope was used in energy-filtered mode with the slit inserted to increase image contrast by collecting only elastically scattered electrons. Digital Micrograph™ software (version 3.20) was used for image acquisition and processing. […] For sample preparation, 400 mesh copper grids were glow-discharged for 40 s to render them hydrophilic. […] The grid was blotted with filter paper and immersed in Uranyless staining solution for 40 s for negative staining. The grid was blotted again and dried under vacuum for 1 min.

## Aβ oligomers: Aβ (1–40) oligomers formed in PBS at 4°C for 24 h, supernatant after centrifugation
syndapin-2
  Association of Aβ with syndapin-2 (PLA): more associated with syndapin-2
LRP1
  LRP1 expression: unaltered
LRP1/Rab5
  LRP1/Rab5 association (PLA): decrease
LRP1/syndapin-2
  LRP1/syndapin-2 interaction (PLA), comparison among assemblies: highest increase

## Aβ fibrils: Aβ (1–40) fibrils prepared in cold 10 mM HCl, incubated at 37°C for 24 h
[1]
  ThT fluorescence intensity (fibril structure): characteristic increase in the fluorescence intensity of ThT
LRP1
  Reduction in the expression levels of LRP1: 2 fold
LRP1/Rab5
  LRP1/Rab5 association (PLA): favour LRP1/Rab5 association
[2]
  Thickness of fibrils (TEM): ~10 nm

## Aβ monomers: Monomeric Aβ obtained by dissolving the Aβ (1–40) peptide directly in DMSO at 1 mM
LRP1
  LRP1 expression: unaltered
LRP1/Rab5
  LRP1/Rab5 association (PLA): favour LRP1/Rab5 association
[2]
  Morphology (TEM): small assemblies and agglomerates
